These results are taken from ChEMBL document CHEMBL1671717, “In vitro potentiation of carbapenems with ME1071, a novel metallo-beta-lactamase inhibitor, against metallo-beta-lactamase- producing Pseudomonas aeruginosa clinical isolates” (Antimicrob Agents Chemother, 2010).

Substrate in data set [1]: C[C@@H](O)[C@H]1C(=O)N2C(C(=O)O)=C(SCCNC=N)C[C@H]12
The experiment in a line: (§1) Activity of Pseudomonas aeruginosa beta-lactamase IMP-1 by UV spectrophotometric analysis.

Substrate in data set [2]: C[C@@H](O)[C@H]1C(=O)N2C(C(=O)[O-])=C(SC3Cn4cnc[n+]4C3)[C@H](C)[C@H]12
The data set is described as §1.

Substrate in data set [3]: C[C@@H](O)[C@H]1C(=O)N2C(C(=O)O)=C(SCCNC=N)C[C@H]12
In words: (§2) Ratio of Kcat to Km for Pseudomonas aeruginosa beta-lactamase IMP-1 by UV spectrophotometric analysis.

Substrate in data set [4]: C[C@@H](O)[C@H]1C(=O)N2C(C(=O)O)=C(S[C@@H]3CN[C@H](C(=O)N(C)C)C3)[C@H](C)[C@H]12
Described as §2.

Substrate in data set [5]: C[C@@H](O)[C@H]1C(=O)N2C(C(=O)[O-])=C(SC3Cn4cnc[n+]4C3)[C@H](C)[C@H]12
Described as §2.

B1: Beta-lactamase (Pseudomonas aeruginosa), Q79MP6 (protein)
chain: MSKLSVFFIFLFCSIATAAESLPDLKIEKLDEGVYVHTSFEEVNGWGVVPKHGLVVLVNAEAYLIDTPFTAKDTEKLVTWFVERGYKIKGSISSHFHSDSTGGIEWLNSRSIPTYASELTNELLKKDGKVQATNSFSGVNYWLVKNKIEVFYPGPGHTPDNVVVWLPERKILFGGCFIKPYGLGNLGDANIEAWPKSAKLLKSKYGKAKLVVPSHSEVGDASLLKLTLEQAVKGLNESKKPSKPSN
The term Km denotes the substrate concentration at which the rate is half of its maximum. As a reminder, the kcat is the maximal rate divided by the concentration of active sites. In general, kcat/Km refers to the turnover number divided by the Michaelis constant. Consider B1, for which the Km is 35.1 µM in data set [1] and 167 µM in data set [2]. Besides, the kcat in data set [1] amounted to 63.5 s⁻¹; in data set [2], 44.7 s⁻¹. In addition, the values for the kcat/Km in data set [3], in data set [4] and in data set [5] were 1.8e+06 M⁻¹ s⁻¹, 200000 M⁻¹ s⁻¹ and 300000 M⁻¹ s⁻¹, respectively.
